From the nanobody polyreactivity screen of Harvey et al. (2022)

experiment: yeast display, Sf9 membrane polyspecificity reagent, FACS + sequencing; frameworks hold sequencing errors
Summary of the method: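 Sorting gates, low and high (top ~1%), were placed on anti-HA fluorescence to track expression and on streptavidin fluorescence to track reagent binding. A clone's polyreactivity label is taken from the gate it came out of. The reagent was 10% biotinylated, detergent-solubilized Sf9 membrane, applied for 1 hour at 4 °C to galactose-induced yeast display cells.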

Sequence	polyreactivity (PSR sort gate)
QVQLVESGGGLVQAGGSLRLSCAASGSTSIEYGMGWYRQAPGKERELVATISIGSSTNYADSVKGRFTISRDNAKNTVYLQMNSLKPEDTAVYYCAADAYLDYYTGYYYQEYDSWGQGTQVTVSS	low polyreactivity
QVQLVESGGGLVQAGGSLRLSCAASGSTSILYAMGWYRQAPGKERELVAAISRSGGSTYYADSVKGRFTISRDNAKNTVYLQMNSLKPEDTAVYYCAAQWVYQYGFNYWGQGTQVTVSS	high polyreactivity
QVQLVESGGGLVQAGGSLRLSCAASGSTSKNYAMGWYRQAPGKERELVAAITRGTSTNYADSVKGRFTISRDNAKNTVYLQMNSLKPEDTAVYYCNVERHRVWDYQWREEDDYWGQGTQVTVSS	low polyreactivity
QVQLVESGGGLVQAGGSLRLSCAASGSTSPAYAMGWYRQAPGKERELVAVITGSGASTYYADSVKGRFTISRDNAKNTVYLQMNSLKPEDTAVYYCAADVGFGVVFYDYWGQGTQVTVSS	low polyreactivity
QVQLVESGGGLVQAGGSLRLSCAASGSTSQINAMGWYRQAPGKERELVAAITWSTGTTYYADSVKGRFTISRDNAKNTVYLQMTSLKPEDTAVYYCAAERAILSSDKQSLWRFDYWGQGTQVTVSS	low polyreactivity
QVQLVESGGGLVQAGGSLRLSCAASGSTSQLYAMGRYRQAPGKERELVAAITVSGDSTYYADSVKGRFTISRDNAKNTVYLQMNSLKPEDTAVYYCAADVMVQTVPGGYDDWGQGTQVTVSS	low polyreactivity
QVQLVESGGGLVQAGGSLRLSCAASGSTSQRYSMGWYRQAPAKEREVVAGITTSGGRTYYADSVKGRFTISRDNAKNTVYLQMNSLKPEDTAVYYCAARTQIWKYRGYYSWGQGTQVTVSS	high polyreactivity
QVQLVESGGGLVQAGGSLRLSCAASGSTSRINAMGWYRQAPGKERELVAGIRANGGRTYYADSVKGRFTISRDNAKNTVYLQMNSLKPEDTAVYYCNKRNWPAEDSWGQGTQVTVSS	high polyreactivity
QVQLVESGGGLVQAGGSLRLSCAASGSTSRTYAMGWYRQAPGKERELVAAINSGGTTYYADSVKGRFTISRDNAKNTVYLQMNSLKPEDTAVYYCARRDFWWSRRIFGYWGQGTQVTVSS	high polyreactivity
QVQLVESGGGLVQAGGSLRLSCAASGSTSRYALGWYIQAPGNERELVAAITRSGGTTYYADSVKGRFTISRDNAKNTVYLQMNSLIPEDTAVYYCATSDRQVKYDYWGQGTQVTVSS	low polyreactivity
QVQLVESGGGLVQAGGSLRLSCAASGSTSRYNVMGWYRQAPGKERELVAAISSRGVSTYYADSVKGRFTISRDNAKKTVYLQMNSLKPEDTAVYYCAARYGGPSHYGYWGQGTQVTVSS	high polyreactivity
QVQLVESGGGLVQAGGSLRLSCAASGSTSSPNAMGWNTQAPGKEREFVAAISRSGGSTYYADSVKGRFTISRDNAKNTVYLQMNSLKPEDSAVYYCAATVTVFYTRYYYWGQGTHVTVSS	high polyreactivity
QVQLVESGGGLVQAGGSLRLSCAASGSTSSSKAMGWYREAPGKERELVATITNGSGTSYADSVKGRFTISRDNAKNTVYLQMNSLKPEDTAVYYCYVSSLNSYTSGTTYWGLDYWGQGTQVTVSS	low polyreactivity
QVQLVESGGGLVQAGGSLRLSCAASGSTSSVYDMGWYRQEPGKERELVAGIDYSAGSTYYADSVKGRFTISRDNAKNTVYLQMNSLKPEDTAVYYCDADAAYYSGYDYWGQGTQVTVSS	low polyreactivity
QVQLVESGGGLVQAGGSLRLSCAASGSTSTGNAMGWYRKAPGKERELVAAITSGGNTYYADSVKGRFTISRDNAKNTVYLQMNSLKPEDTAVYYCAAASPGPWRYDYWGQGTQVTVSS	high polyreactivity
QVQLVESGGGLVQAGGSLRLSCAASGSTSVGNAMGWYRQAPGKERELVAAMSRIGGTTYYADSVKGRFTISRDNAKNTVYLQMNSLKPEDTAVYYCNVLKRYWSGRVDYWGQGTQVTVSS	high polyreactivity
QVQLVESGGGLVQAGGSLRLSCAASGSTSVKYAMGWYRQAPGKERELVAAIRKRGDSTYYADSVKGRFTISRDNAKNTVYLQMNSLKPEDTAVYYCAAQYLRGRGYWGQGTQVTVSS	low polyreactivity
QVQLVESGGGLVQAGGSLRLSCAASGSTSVKYAMGWYRQAPGKERELVAAIRKRGDSTYYADSVKGRFTISRDNAKYSVYLQMNSLKAEDTAVYYCAAQYLRGRGYWGQGTQVTVSS	low polyreactivity
QVQLVESGGGLVQAGGSLRLSCAASGSTSVPYTMGWYRQAPGKERELVAAISSSGGTTNYAVSVKGRFTISRDNAKNTVSLQMNSLKPEDTAVYYCAAEYYQWVAYSWNEMYYWGQGTQVTVSS	low polyreactivity
QVQLVESGGGLVQAGGSLRLSCAASGSTSVQYAMGWYRQAPGKERELVAAIDRSGGSTSYADSVKGRFTISRDNAKNTVYLQMNTLKPEDTAVYYCNADPVRSTYSYDYWGQGTQVTVSS	low polyreactivity
QVQLVESGGGLVQAGGSLRLSCAASGSTSVTNAMGWYRQAPGKEREFFATINYSGTSTYYADSVKGRFTISRDNAKNTVYLQMNSLNPEDTAVYYCYAHDFGFYRFSLPGYDYWGQGTQVTVSS	low polyreactivity

Sequence	polyreactivity (PSR sort gate)
QVQLVESGGGLVQAGGSLRLSCAASGSTSYFNVMGWYRQAPGKERELVAAISWSGGSTYADSVKGRFTISRDNAKNTVYLQMNSLKPEDTAVYYCNKDYGYVQLRFYGPGYYWGQGTQVTVSS	low polyreactivity
QVQLVESGGGLVQAGGSLRLSCAASGSTSYGYAMGWYRQAPGKERELVAAISRTDRTYYADSVKGRFTISRDNAKNTVYLQMNSLKPEDTAVYYCTAVLVGRAEYYYWGQGTQVTVSS	high polyreactivity
QVQLVESGGGLVQAGGSLRLSCAASGSTSYIYAMGWYRQAPGKERELVAAISKSGGRTYYADSVKGRFTISRDNAKNTVYLQMNSLKPEDTAVYYCAAVPGRTAEDYGEDYWGQGTQVTVSS	high polyreactivity
QVQLVESGGGLVQAGGSLRLSCAASGSTSYNMGWYRQAPGKERELVAAISYRGGRTYYADSVKGRFTISRDNAKNTVYLQMNSLKPEDTAVYYCAKGIFDTFDSWGQGTQVTVSS	low polyreactivity
QVQLVESGGGLVQAGGSLRLSCAASGSTVDWNAMGWYRQAPGKERELVAGITFRSGSTYYADSVKGRFTISRDNAKNTVYLQMNSLKPEDTAVYYCNVKLYYYYFRMYYWGQGTQVTVSS	low polyreactivity
QVQLVESGGGLVQAGGSLRLSCAASGSTVEYNAMGWYRQAPGKERELVASSTNYADSVKGRFTISRDNAKNTVYLQMNSLKPEDTAVYYCAASSLPHDSYRHSYLYEYWGQGTQVTVSS	low polyreactivity
QVQLVESGGGLVQAGGSLRLSCAASGSTVEYYAMGWYRQAPGKERELFAAISSGPSTTYADSVKGRFTISRDNAKNTVYLQMYSLKREDTAVYYCARLDGTTQALFGYDYWGQGTQVTVSS	low polyreactivity
QVQLVESGGGLVQAGGSLRLSCAASGSTVGYYDMGWYRQAPGKERELVATITKSGGTTRYADSVKGRFTISRDNAKNTVYLQMNSLKPEDTAVYYCAADGTWRLLDDYWGQGTQVTVSS	low polyreactivity
QVQLVESGGGLVQAGGSLRLSCAASGSTVSPNAMGWDRPAPGKERELVAAITYRGANTYYADSVKGRFTISRDNAKNTVYLQMNSLKPEDTAVYYCAATYGSWISLRFYWGQGTQVTVSS	low polyreactivity
QVQLVESGGGLVQAGGSLRLSCAASGSTVVYYAMGWYRQAPGKERELVAAISSSGGTTYYADSVKGRFTISRDNAKNRVYLQMKSLKPEDTAVYYCAAPYASRGNEYWGQGTQVTVSS	high polyreactivity
QVQLVESGGGLVQAGGSLRLSCAASGSTWWYDMGWSRQAPGKERELVASISSGDSTNYADSVKGRFTISRDNAKNTVYLQMNSLKPEDTAVYYCAADKNSRPAGKGSTGYGYDYWGQGTQVNVSS	low polyreactivity
QVQLVESGGGLVQAGGSLRLSCAASGSTYATNAMRWYRQAPGKERELVATISWSGGSTYYADSVKGRFTISRDNAKNTVYLQMNSLKPEDTAVYYCAADWSNLGAYDYWGQGTQVTVSS	low polyreactivity
QVQLVESGGGLVQAGGSLRLSCAASGSTYFRNAMGWYRQAPGKERELVAAISSSCGSTYYADSVKGRFTISRDNAKNTVYLQMTSLKPEDTAVYYCNADWYYAGYGYWGQGTQVTVSS	low polyreactivity
QVQLVESGGGLVQAGGSLRLSCAASGSTYGIYAMGWYRQAPGKERELVAAITLRTDSTYYADSVKGRFTISRDNAKNTVYLQMNSLKPEVTAVYYCARRYRYGYDYWGQGTQVTVSS	low polyreactivity
QVQLVESGGGLVQAGGSLRLSCAASGSTYHYAMGWYRQAPGKERELVASITWRGDTTYYADSVKGRFTISRDNAKNTVYLQMNSLKPEDTAVYYCAARKFFRQGGKRYDYWGQGTQVTVSS	high polyreactivity
QVQLVESGGGLVQAGGSLRLSCAASGSTYRGYAMGWYRQAPGKERELVAAISWTGGSTYNADSVKGRYTISRDNAKNTVYLQMNSLKPEDTAVYYCNTYVKDWGGYSYRYRYYYWGQGTQVTVSS	high polyreactivity
QVQLVESGGGLVQAGGSLRLSCAASGSTYRYTMGWYRPAPGKERELVAAITGSAGSTYYADSVKGRFTISRDNAKNTVYLQMHSLKPEDTAVYYCNKVRPRKFWDYYYWGQGTQVTVSS	high polyreactivity
QVQLVESGGGLVQAGGSLRLSCAASGSTYRYYAMGWYRQAHGKERELVAAINSSCGSTYYADSVKGRFTISRDNAKNTVYLQMNSLKPEDTAVYYCATVYAYTGWLTNPREYSRYDYWGQGTQVTVSS	low polyreactivity
QVQLVESGGGLVQAGGSLRLSCAASGSTYVSNAMGWYRQAPGKERELVAAISTSGGTTYYADSVKGRFTISRDNAKNTVYLQMNSLKPEDTAVYYCAADYKAYGRSYDYWGQGTQVTVSS	low polyreactivity
QVQLVESGGGLVQAGGSLRLSCAASGSTYYGNAMGWYRQAPGKERQLVAAIRSRGGSTYYADSVKGRFTISRDNAKNTVYLQMNSLKPEDPAVYYCDAKQPSWKYAYYYWGQGTQVTVSS	high polyreactivity
